Data published in US12251377B2, “Anticoagulant compositions and uses thereof” (University of Rochester, priority 2019, dated 2025).

Key:
[1] = cited from earlier work
[2] = system: coagulation of human blood; test: Cardiopulmonary bypass circuit simulation (arterio-venous loop); assay type: biochemical; settings: whole duration of the bypass circuit experiment, 37° C.
Method: (§1) In the examples below, studies were carried out to examine effects of dabigatran on coagulation of human blood. The studies were approved by the Institutional Review Board (University of Rochester RSRB, Rochester, NY) and informed consent was obtained from all subjects. Six healthy non-pregnant donors between 18-70 years old were recruited for the study. Subjects were excluded from the recent infections, disorders of immune system, hematological disorders including prior history of clotting issues, malignancies. Current medications and herbal supplements were recorded. Standard phlebotomy procedures performed by trained personal were used to collect no more than 250 ml of whole blood in two months. The collected blood was anticoagulated with 0.109 M Na citrate and tested within four hours. Dabigatran was purchased from CLEARSYNTH (Ontario, Canada). The study was initiated in three steps: Effect of high-dose Dabigatran on coagulation of human blood in-vitro; Evaluation of the anticoagulant effect of Dabigatran in the Chandler Loop System; and Anticoagulation effect of Dabigatran in the Cardiopulmonary bypass circuit simulation. […]

[3] = system: coagulation of human blood; test: Chandler Loop System, clot formation in circulating blood; assay type: biochemical; settings: Idarucizumab added after 2 hours of circulation; immediate clotting of the blood in the loop
Method: as §1
(§2) Methods: Dabigatran was initially dissolved in 0.1 M HCL, followed by diluting 1:1 with DMSO/H2O to prepare four stock solutions: […]. […] Blood clotting was monitored for 120 minutes. […]

[4] = system: coagulation of human blood; test: Thromboelastography, TEG 5000 rapid TEG test, clotting/reactive time (R); assay type: biochemical; settings: human blood in vitro
Method: In the examples below, studies were carried out to examine effects of dabigatran on coagulation of human blood. The studies were approved by the Institutional Review Board (University of Rochester RSRB, Rochester, NY) and informed consent was obtained from all subjects. Six healthy non-pregnant donors between 18-70 years old were recruited for the study. Subjects were excluded from the recent infections, disorders of immune system, hematological disorders including prior history of clotting issues, malignancies. Current medications and herbal supplements were recorded. Standard phlebotomy procedures performed by trained personal were used to collect no more than 250 ml of whole blood in two months. […]
Methods: Dabigatran (CLEARSYNTH, Catalog No. CS-O-03403; CAS number 211914-51-1) was initially dissolved in 0.1M HCL to 16.6 mg/ml, followed by diluting to 240 μg/ml, using 50% DMSO. […] TEG 5000 (rapid TEG test) and ROTEM (ex-tem test) were used to measure anticoagulation and the corresponding reactive time (R) and coagulation time (CT) were recorded.
as §2
Each of the dabibatran-containing blood sample described above was examined for clotting time R measured by TEG in the manner described above.

Molecule: [H]/N=C(/N)c1ccc(NCc2nc3cc(C(=O)N(CCC(=O)O)c4ccccn4)ccc3n2C)cc1 [Dabigatran]
- normal concentrations found in patients [1]: 180 ng/mL
- plasma levels of Dabigatran during the experimental procedure (Mass Spectrometry) [2]: remain stable

B1: Idarucizumab: anti-dabigatran antibody, reversal agent (antibody, chains of the INN, looked up, V domains shown)
VH: QVQLQESGPGLVKPSETLSLTCTVSGFSLTSYIVDWIRQPPGKGLEWIGVIWAGGSTGYNSALRSRVSITKDTSKNQFSLKLSSVTAADTAVYYCASAAYYSYYNYDGFAYWGQGTLVTVSS
VL: DVVMTQSPLSLPVTLGQPASISCKSSQSLLYTDGKTYLYWFLQRPGQSPRRLIYLVSKLDSGVPDRFSGSGSGTDFTLKISRVEAEDVGVYYCLQSTHFPHTFGGGTKVEIK
modifications: Fab
notes: anti-dabigatran antibody, reversal agent
- reversal of the anticoagulation action of Dabigatran in the Chandler loop [3]: effectively reversed
- reversal of the anticoagulation effect of Dabigatran ([4]; 125 μg/ml Idarucizumab): successfully reversed
- Idarucizumab concentration required to reverse the highest concentrations of Dabigatran ([4]; highest Dabigatran concentrations): 2-4 times normal plasma concentrations
